According to US20260193638A1 (ROCHE DIAGNOSTICS OPERATIONS, published 2026):

B1: Thermus thermophilus SlyD-FKBP clone C10B9 (designed binder)
chain: MRSKVGQDKVVTIRYTLQVEGEVLDQGELSYLHGHRNLIPGLEEALEGREEGEAFQAHVPAEKAYGAGSYYVLITDNLVYFGGSSGKDLDFQVEVVKVREATPEELLHGHGGAAAGLNDIFEAQKIEWHEGSRKHHHHHHHH
notes: also called C10B9 mutant
B2: Thermus thermophilus SlyD-FKBP TT10F7 (designed binder)
chain: MRSKVGQDKVVTIRYTLQVEGEVLDQGELSYLHGHRNLIPGLEEALEGREEGEAFQAHVPAEKAYGAGSWKPHFNLHLLYLIGSSGKDLDFQVEVVKVREATPEELLHGHAHGGAAAGLNDIFEAQKIEWHEGSRKHHHHHHHH
notes: captured on the sensor directly from E. coli lysate; also called TT10F7 mutant; TT10F7 T.t.SlyD-FKBP12

Key:
[1] = biological target: T1, human recombinant TNFα (fully intact trimeric TNFα) (human, UniProt P01375 77-233); experiment: SPR, C10B9 captured via anti-SlyD antibody, TNFα in solution
T1 construct: also called hrTNFα
T1 sequence (P01375 77-233 limits assumed): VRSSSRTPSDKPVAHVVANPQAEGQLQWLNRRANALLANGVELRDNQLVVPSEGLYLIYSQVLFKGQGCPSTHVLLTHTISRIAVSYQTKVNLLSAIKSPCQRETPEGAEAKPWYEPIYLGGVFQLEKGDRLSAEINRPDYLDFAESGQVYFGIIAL
Protocol: (§1) The samples were diluted in the instrument's buffer. In another embodiment the buffer was HBS-E buffer (10 mM HEPES pH 7.4, 150 mM NaCl, 3 mM EDTA) and the samples were diluted in the detergent-free buffer. The system operated at 25° C. 10000 RU GAR-Fcγ (relative units of Fcγ-fragment binding, polyclonal goat anti-Rabbit IgG/Jackson Laboratories) were immobilized according to the manufacturer's instructions using EDC/NHS chemistry on all 4 flow cells. The sensor is finally deactivated using 1M ethanolamine. […] A monoclonal rabbit anti-Thermus thermophilus SlyD core protein (0612pS3A8) binding antibody, was captured in all flow cells by a 6 min injection at 5 μl/min. […] Flow cell 1 served as a reference. […] The Thermus thermophilus SlyD-FKBP clones were specifically captured on the sensor by a 2 min injection at 30 μl/min directly from a 1:25 diluted 10000 g-centrifuged E. coli lysate supernatant.
(§2) The flow rate was set to 100 μl/min. […] The dissociation was monitored for 5 minutes.

[2] = biological target: T1, human recombinant TNFα (fully intact …); experiment: SPR, TT10F7 captured, TNFα (52 kDa trimer) in solution, - TWEEN 20
Protocol: as §1, §2

[3] = biological target: T1, human recombinant TNFα (fully intact …); experiment: SPR, TT10F7 captured, TNFα (52 kDa trimer) in solution, + TWEEN 20
Protocol: as §1, §2

[4] = biological target: Streptavidin (11897000, Roche) (UniProt P22629 37-163, limits assumed); experiment: SPR, TT10F7 captured via anti-SlyD antibody, streptavidin in solution
Chain of Streptavidin (11897000, Roche) (P22629 37-163 limits assumed): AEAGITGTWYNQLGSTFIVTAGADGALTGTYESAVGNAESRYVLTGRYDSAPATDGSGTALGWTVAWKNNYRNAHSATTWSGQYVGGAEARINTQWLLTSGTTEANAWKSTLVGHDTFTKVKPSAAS
Protocol: as §1, §2

[5] = biological target: T1, human recombinant TNFα (fully intact …); experiment: SPR BIACORE 3000, TT10F7 captured via anti-SlyD antibody, trimeric TNFα as analyte
Protocol: as §1, with “A CM5 series sensor was mounted into the system and was normalized in HBS-ET buffer (10 mM HEPES pH 7.4, 150 mM NaCl, 3 mM EDTA, 0.005% w/v Tween 20) according to the manufacturer's instructions. The samples” for “The samples”
as §2

Binder | binding result [1] | Kd [2] | koff [2] | kon [2] | Kd [3] | koff [3] | kon [3] | binding result [4] | stoichiometry [5]
B1 | no binding (tested: 1 µM) | – | – | – | – | – | – | – | –
B2 | – | 262 nM | 0.00103 s⁻¹ | 3960 M⁻¹ s⁻¹ | 258 nM | 0.00268 s⁻¹ | 10400 M⁻¹ s⁻¹ | no binding (tested: 1 µM) | 3 to 1
